In patent publication US20220177569A1 (Novartis, published 2022):

Key:
[1] = target: T1, Recombinant human IL-18 (human, UniProt Q14116 37-193); assay: SET (solution equilibrium titration, MSD ECL), individual target binding
T1 construct: also called huIL-18; hulL-18
Procedure: (§1) The plate was blocked with 50 μl/well blocking buffer (PBS containing 5% BSA) for 1 hour (h), at room temperature (RT). After washing (TBST, TBS containing 0.05% Tween 20), a volume of 30 μl/well of the equilibrated antigen- antibody mix was transferred from the polypropylene MTP to the coated MSD plate and incubated for 20 min at RT. After an additional wash step, 30 μl sulfo tag-labeled anti-IgG detection antibody (0.5 μg/ml) diluted in sample buffer were added to each well and incubated for 30 min at RT on a shaker. The MSD plate was washed and 35 μl/well MSD read buffer were added and incubated for 5 min at RT. Electrochemiluminescence (ECL) signals were generated and measured by the MSD Sector Imager 6000.

[2] = target: T2, Recombinant marmoset IL-18 (marmoset, UniProt U3CWC9 37-190); assay: as above
T2 construct: also called marIL-18
T2 sequence: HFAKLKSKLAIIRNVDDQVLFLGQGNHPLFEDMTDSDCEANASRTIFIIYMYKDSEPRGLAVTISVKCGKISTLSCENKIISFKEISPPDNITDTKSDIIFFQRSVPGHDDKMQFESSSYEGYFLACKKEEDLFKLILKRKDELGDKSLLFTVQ
Procedure: as §1

[3] = target: T1, Recombinant human IL-18; assay: cell-based or functional assay
[4] = target: T2, Recombinant marmoset IL-18; assay: cell-based or functional assay
[5] = target: T1, Recombinant human IL-18; assay: cell-based or functional assay; remark: listed apart in the source
[6] = target: T3, Recombinant human IL-1β (human, UniProt P01584 117-269); assay: SET, simultaneous target binding, Assay B (both targets in serial dilutions in one mix)
T3 construct: also called huIL-1β; IL-1b
Procedure: as §1
(§2) Assay B: The equilibration process (antibody/antigen mix) was performed with both targets in serial dilutions in one mix simultaneously (constant concentration of antibody […], highest antigen conc. see above). The same mix was then analyzed for its free antibody concentration on IL18 and IL-1β coated plates as described above.

[7] = target: T1, Recombinant human IL-18; assay: as above
Procedure: as §1, §2

[8] = target: T2, Recombinant marmoset IL-18; assay: as above
Procedure: as §1, §2

[9] = target: T4, Recombinant marmoset IL-1β (marmoset, UniProt U3E018 117-268); assay: as above
T4 construct: also called marIL-1β
Procedure: as §1, §2

[10] = target: T1, Recombinant human IL-18; assay: SET, simultaneous target binding, Assay A (excess of the other target, IL-1β)
Procedure: as §1, §2

[11] = target: T2, Recombinant marmoset IL-18; assay: as above
Procedure: as §1, §2

[12] = target: T3, Recombinant human IL-1β; assay: SET (solution equilibrium titration, MSD ECL), individual target binding
Procedure: as §1

[13] = target: T4, Recombinant marmoset IL-1β; assay: as above
Procedure: as §1

[14] = target: T3, Recombinant human IL-1β; assay: SET, simultaneous target binding, Assay A (excess of the other target, IL-18)
Procedure: as §1, §2

[15] = target: T4, Recombinant marmoset IL-1β; assay: as above
Procedure: as §1, §2

[16] = target: T3, Recombinant human IL-1β; assay: cell-based or functional assay
[17] = target: T3, Recombinant human IL-1β; assay: cell-based or functional assay; remark: listed apart in the source
[18] = target: T4, Recombinant marmoset IL-1β; assay: cell-based or functional assay

B1: mAb1 (IL-18 antibody) (antibody, human IgG1, lambda, L234A L235A, V domains shown)
VH: EVQLVQSGAEVKKPGSSVKVSCKASGGTFKSYAISWVRQAPGQGLEWMGNIIPMTGQTYYAQKFQGRVTITADESTSTAYMELSSLRSEDTAVYYCARAAYHPLVFDNWGQGTLVTVSS
VL: DIVLTQPPSVSGAPGQRVTISCSGSSSNIGNHYVNWYQQLPGTAPKLLIYRNNHRPSGVPDRFSGSKSGTSASLAITGLQSEDEADYYCQSWDYSGFSTVFGGGTKLTVLG
Kd [1]: 0.009 nM
Kd [2]: 0.021 nM
Inhibition of SEAP in HEK reporter cells stimulated simultaneously with IL-1β and IL-18, IC50; mAb1 alone [3]: > 30 nM
Inhibition of SEAP in HEK reporter cells stimulated simultaneously with IL-1β and IL-18, IC50; mAb2 and mAb1 combined [3]: 0.24 nM
IFNγ prod. Human PBMC IC50 (marmoset IL-18 1 nM and human IL-12 10 ng/ml) [4]: 6.6 nM
IFNγ prod. Marmoset blood IC50 (marmoset IL-18 0.3 nM and human IL-12 10 ng/ml) [4]: 4.7 nM
IFNγ prod. Marmoset blood IC50 (marmoset IL-18 3 nM and human IL-12 10 ng/ml) [4]: 181 nM
IFNγ prod. KG-1 cells IC50 (3 nM recombinant human IL-18 and 1 ng/ml human IL-12) [5]: 0.035 nM
IFNγ prod. PBMC IC50 (3 nM recombinant human IL-18 and 1 ng/ml human IL-12) [5]: 0.78 nM
binding result [6]: no binding (tested: highest antigen conc. huIL-1β 0.5 nM)
Kd [7]: 0.0114 nM
Kd [8]: 0.0263 nM
binding result [9]: no binding (tested: highest antigen conc. marIL-1β 0.5 nM)
Kd [10]: 0.0135 nM
Kd [11]: 0.0271 nM

B2: mAb2 (IL-1β antibody) (antibody, human IgG1, kappa, V domains shown)
VH: QVQLVESGGGVVQPGRSLRLSCAASGFTFSVYGMNWVRQAPGKGLEWVAIIWYDGDNQYYADSVKGRFTISRDNSKNTLYLQMNGLRAEDTAVYYCARDLRTGPFDYWGQGTLVTVSS
VL: EIVLTQSPDFQSVTPKEKVTITCRASQSIGSSLHWYQQKPDQSPKLLIKYASQSFSGVPSRFSGSGSGTDFTLTINSLEAEDAAAYYCHQSSSLPFTFGPGTKVDIKR
Kd [12]: 0.0006 nM
Kd [13]: 0.001 nM
Kd [14]: 0.0011 nM
Kd [15]: 0.0008 nM
IL-6 prod. PBMC IC50 (human PBMC stimulated with 60 pM recombinant human IL-1β) [16]: 0.29 nM
IL-6 prod. derm. fibrobl. IC50 (human dermal fibroblasts stimulated with 6 pM recombinant human IL-1β) [16]: 0.031 nM
Inhibition of SEAP in HEK reporter cells stimulated simultaneously with IL-1β and IL-18, IC50; mAb2 alone [17]: 30 nM
Inhibition of SEAP in HEK reporter cells stimulated simultaneously with IL-1β and IL-18, IC50; mAb2 and mAb1 combined [17]: 0.24 nM
Kd [6]: 0.0032 nM
binding result [7]: no binding (tested: highest antigen conc. huIL-18 5 nM)
Kd [9]: 0.0048 nM
IL-6 prod. dermal fibroblasts IC50, Exp. B (18 pM recombinant marmoset IL-1β; marmoset cells by the reading of the header) [18]: 0.138 nM
IL-6 prod. dermal fibroblasts IC50, Exp. C (18 pM recombinant marmoset IL-1β; human cells by the reading of the header) [18]: 0.114 nM
IL-6 prod. marmoset dermal fibroblasts IC50, Exp. A (18 pM recombinant marmoset IL-1β) [18]: 0.095 nM
